Data published in the supplement of paper PMC7877785.
± gives the uncertainty stated by the source.

Test: self-splicing fitness, log relative to wild type (ln ratio); higher = more splicing; Tetrahymena group I intron in knt gene, E. coli kanamycin selection, DiMSum; sequences stand for … in CUCUCU…GGAGGGAAAAGUUAUCAGGCAUGCACCUGGUAGCUAGUCUUUAAACCAAUAGAUUGCAUCGGUUUAAAAGGCAAGACCGUCAAAUUGCGGGAAAGGGGUCAACAGCCGUUCAGUACCAAGUCUCAGGGGAAACUUUGAGAUGGCCUUGCAAAGGGUAUGGUAAUAAGCUGACGGACAUGGUCCUAACCACGCAGCCAAGUCCUAAGUCAACAGAUCUUCUGUUGAUAUGGAUGCAGUUCACAGACUAAAUGUCGGUCGGGGAAGAUGUAUUCUUCUCAUAAGAUAUAGUCGGACCUCUCCUUAAUGGGAGCUAGCGGAUGAAGUGAUGCAACACUGGAGCCGCUGGGAACUAAUUUGUAUGCGAAAGUAUAUUGAUUAGUUUUGGAGUACUCGUGGUCG
In short: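 Library with all eight P1ex-region intron nucleotides randomised, intron inside the knt kanamycin-resistance gene on pET-22b(+), in E. coli BL21(DE3). Cells grew overnight at 37°C or 30°C on LB agar with or without 25 μg/mL kanamycin (plus 100 μg/mL carbenicillin, 50 μM IPTG, 0.2% rhamnose), in six replicate transformations. Pooled colonies were amplicon-sequenced on Illumina HiSeq 2500. DiMSum fitness is the error-weighted combination of wild-type-normalised replicate fold changes, kanamycin versus none.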

Row | Sequence | self-splicing fitness (ln) (37 °C) | self-splicing fitness (ln) (30 °C)
1 | CAGUAGCAAUAUUACGCCCU | -1.3 ± 0.32 | 
2 | CAGUAGCAAUAUUACGGAAU | -2.55 ± 0.18 | -3.7 ± 0.27
3 | CAGUAGCAAUAUUACGGCAU | -1.78 ± 0.18 | -4.45 ± 0.27
4 | CAGUAGCAAUAUUACGGCCA | -1.11 ± 0.21 | -1.17 ± 0.16
5 | CAGUAGCAAUAUUACGGGAG | -1.91 ± 0.27 | -2.37 ± 0.18
6 | CAGUAGCAAUAUUACGGGCU | -1.21 ± 0.15 | -3.56 ± 0.26
7 | CAGUAGCAAUAUUACGGUCG | 0.084 ± 0.1 | -0.204 ± 0.093
8 | CAGUAGCAAUAUUACGGUGA | -2.58 ± 0.24 | -4.04 ± 0.31
9 | CAGUAGCAAUAUUACGGUUC | -2.53 ± 0.29 | -2.7 ± 0.25
10 | CAGUAGCAAUAUUACGGUUU | -0.724 ± 0.15 | -3.21 ± 0.22
11 | CAGUAGCAAUAUUACGUAGA | -1.85 ± 0.16 | -3.03 ± 0.14
12 | CAGUAGCAAUAUUACGUAGG | -0.0678 ± 0.066 | -0.361 ± 0.047
13 | CAGUAGCAAUAUUACGUCCA | -1.83 ± 0.28 | -2.28 ± 0.21
14 | CAGUAGCAAUAUUACGUGAG | -0.54 ± 0.12 | -1.18 ± 0.067
15 | CAGUAGCAAUAUUACGUGUC | -3.17 ± 0.33 | -3.74 ± 0.27
16 | CAGUAGCAAUAUUACGUGUG | -1.23 ± 0.085 | -1.64 ± 0.062
17 | CAGUAGCAAUAUUACGUUGG | -0.932 ± 0.1 | -1.56 ± 0.075
18 | CAUAAGCAAUAUUACGAGUG | -2.86 ± 0.2 | -2.76 ± 0.19
19 | CAUAAGCAAUAUUACGAUUU | -2.19 ± 0.16 | -2.47 ± 0.13
20 | CAUAAGCAAUAUUACGCACC | -0.0667 ± 0.48 | -2.33 ± 0.4
21 | CAUAAGCAAUAUUACGCACU | -0.81 ± 0.11 | -2.12 ± 0.11
22 | CAUAAGCAAUAUUACGCAGA | -2.51 ± 0.17 | -2.5 ± 0.17
23 | CAUAAGCAAUAUUACGCCAU | -2.6 ± 0.34 | -1.36 ± 0.15
24 | CAUAAGCAAUAUUACGCCGA | -1.71 ± 0.48 | 
25 | CAUAAGCAAUAUUACGCCUA | -0.984 ± 0.21 | -2.46 ± 0.35

Row | Sequence | self-splicing fitness (ln) (37 °C) | self-splicing fitness (ln) (30 °C)
26 | CAUAAGCAAUAUUACGCGGC | -2.53 ± 0.23 | -3.43 ± 0.28
27 | CAUAAGCAAUAUUACGCUAU | -2.99 ± 0.4 | -2.93 ± 0.28
28 | CAUAAGCAAUAUUACGCUUG | -3.01 ± 0.25 | -3.08 ± 0.29
29 | CAUAAGCAAUAUUACGUACA | -2.37 ± 0.19 | -3.09 ± 0.36
30 | CAUAAGCAAUAUUACGUCCG | 1.11 ± 0.12 | -0.727 ± 0.081
31 | CAUAAGCAAUAUUACGUCUA | -1.4 ± 0.11 | -2.41 ± 0.14
32 | CAUAAGCAAUAUUACGUGUA | -1.77 ± 0.18 | -2.6 ± 0.14
33 | CAUAAGCAAUAUUACGUUAC | -2.15 ± 0.24 | -3.85 ± 0.24
34 | CAUCAGCAAUAUUACGAACU | -0.499 ± 0.17 | -3.37 ± 0.21
35 | CAUCAGCAAUAUUACGACAU | -1.51 ± 0.033 | -2.905 ± 0.017
36 | CAUCAGCAAUAUUACGACCU | -1.17 ± 0.29 | -2.49 ± 0.31
37 | CAUCAGCAAUAUUACGACGC | -1.23 ± 0.26 | -2.37 ± 0.23
38 | CAUCAGCAAUAUUACGACUU | -0.408 ± 0.081 | -1.85 ± 0.081
39 | CAUCAGCAAUAUUACGAUAG | -0.0749 ± 0.14 | -0.277 ± 0.1
40 | CAUCAGCAAUAUUACGCAGU | -1.78 ± 0.097 | -2.02 ± 0.089
41 | CAUCAGCAAUAUUACGCCAA | -1.81 ± 0.24 | -1.99 ± 0.25
42 | CAUCAGCAAUAUUACGCCAG | -0.553 ± 0.1 | -0.613 ± 0.068
43 | CAUCAGCAAUAUUACGCGAU | -2.86 ± 0.32 | -3.69 ± 0.23
44 | CAUCAGCAAUAUUACGCGCU | -1.87 ± 0.29 | 
45 | CAUCAGCAAUAUUACGCUGA | -2.24 ± 0.27 | -3.2 ± 0.22
46 | CAUCAGCAAUAUUACGCUGG | -2.97 ± 0.2 | -3.62 ± 0.19
47 | CAUCAGCAAUAUUACGGAAG | -0.416 ± 0.069 | -0.623 ± 0.054
48 | CAUCAGCAAUAUUACGGGAU | -1.88 ± 0.22 | 
49 | CAUCAGCAAUAUUACGGUUA | -0.102 ± 0.1 | -0.767 ± 0.1
50 | CAUCAGCAAUAUUACGUAAA | -0.891 ± 0.13 | -1.39 ± 0.11

Row | Sequence | self-splicing fitness (ln) (37 °C) | self-splicing fitness (ln) (30 °C)
51 | CAUCAGCAAUAUUACGUAAC | -2.01 ± 0.24 | -2.81 ± 0.15
52 | CAUCAGCAAUAUUACGUAAU | -1.4 ± 0.1 | -2.56 ± 0.09
53 | CAUCAGCAAUAUUACGUAGA | -0.309 ± 0.088 | -1.06 ± 0.065
54 | CAUCAGCAAUAUUACGUAGG | 0.412 ± 0.077 | -0.284 ± 0.05
55 | CAUCAGCAAUAUUACGUCGU | -1.19 ± 0.11 | -1.93 ± 0.097
56 | CAUCAGCAAUAUUACGUGAA | -0.211 ± 0.09 | -0.729 ± 0.055
57 | CAUCAGCAAUAUUACGUUUC | -1.82 ± 0.16 | -2.76 ± 0.17
58 | CAUGAGCAAUAUUACGAACU | -2.95 ± 0.26 | -3.53 ± 0.19
59 | CAUGAGCAAUAUUACGAAUG | -2.33 ± 0.16 | -3.67 ± 0.2
60 | CAUGAGCAAUAUUACGACAC | -1.19 ± 0.31 | 
61 | CAUGAGCAAUAUUACGAGCC |  | -3.05 ± 0.41
62 | CAUGAGCAAUAUUACGAUGC | -1.89 ± 0.2 | -3.19 ± 0.17
63 | CAUGAGCAAUAUUACGAUUG | -3.15 ± 0.24 | -4.17 ± 0.26
64 | CAUGAGCAAUAUUACGCACA | -2.44 ± 0.23 | -2.8 ± 0.2
65 | CAUGAGCAAUAUUACGCAGA | -1.69 ± 0.15 | -4.53 ± 0.32
66 | CAUGAGCAAUAUUACGCGCA | -1.31 ± 0.16 | -2.89 ± 0.19
67 | CAUGAGCAAUAUUACGCGGG | -2.46 ± 0.28 | -1.45 ± 0.14
68 | CAUGAGCAAUAUUACGCGGU | -2.33 ± 0.21 | -4.59 ± 0.33
69 | CAUGAGCAAUAUUACGGAAA | -2.17 ± 0.24 | -3.26 ± 0.29
70 | CAUGAGCAAUAUUACGGCUU | -2.92 ± 0.29 | -2.99 ± 0.17
71 | CAUGAGCAAUAUUACGGGCA | -2.21 ± 0.28 | -2.43 ± 0.18
72 | CAUGAGCAAUAUUACGGGGG | -2.64 ± 0.3 | -2.64 ± 0.23
73 | CAUGAGCAAUAUUACGGUCG | 0.0674 ± 0.1 | -0.34 ± 0.091
74 | CAUGAGCAAUAUUACGGUUA | -3.26 ± 0.32 | -2.75 ± 0.23
75 | CAUGAGCAAUAUUACGUGUG | -3.09 ± 0.16 | -3.67 ± 0.17

Row | Sequence | self-splicing fitness (ln) (37 °C) | self-splicing fitness (ln) (30 °C)
76 | CAUUAGCAAUAUUACGAACA | -0.317 ± 0.2 | -3.7 ± 0.42
77 | CAUUAGCAAUAUUACGAGUA | -1.84 ± 0.27 | -1.59 ± 0.23
78 | CAUUAGCAAUAUUACGAGUG | -2.83 ± 0.2 | -3.06 ± 0.15
79 | CAUUAGCAAUAUUACGAUCA | -1.46 ± 0.23 | -2.81 ± 0.33
80 | CAUUAGCAAUAUUACGAUCU | -3.22 ± 0.47 | -2.48 ± 0.2
81 | CAUUAGCAAUAUUACGCAAU | -1.54 ± 0.43 | 
82 | CAUUAGCAAUAUUACGCAGG | -1.53 ± 0.13 | -2.18 ± 0.12
83 | CAUUAGCAAUAUUACGCAUC | -1.6 ± 0.27 | -2.71 ± 0.21
84 | CAUUAGCAAUAUUACGCCUG | -0.136 ± 0.12 | -1.4 ± 0.12
85 | CAUUAGCAAUAUUACGGCUU | -1.98 ± 0.33 | -4.46 ± 0.39
86 | CAUUAGCAAUAUUACGUAGU | -1.84 ± 0.17 | -3.66 ± 0.17
87 | CAUUAGCAAUAUUACGUCAA | -2.96 ± 0.4 | -2.38 ± 0.23
88 | CAUUAGCAAUAUUACGUCCG | -0.142 ± 0.15 | -0.0564 ± 0.12
89 | CAUUAGCAAUAUUACGUGAG | 0.776 ± 0.12 | -1.55 ± 0.14
90 | CAUUAGCAAUAUUACGUGCA |  | -2.31 ± 0.28
91 | CAUUAGCAAUAUUACGUGCG | -0.237 ± 0.082 | -0.965 ± 0.074
92 | CAUUAGCAAUAUUACGUGGA | -2.13 ± 0.13 | -3.35 ± 0.19
93 | CAUUAGCAAUAUUACGUUCA | -2.35 ± 0.24 | -2.33 ± 0.2
94 | CCAAAGCAAUAUUACGAACA | -3.23 ± 0.28 | -3.48 ± 0.22
95 | CCAAAGCAAUAUUACGAUCA | -3.1 ± 0.31 | -2.94 ± 0.13
96 | CCAAAGCAAUAUUACGAUUA | -3.27 ± 0.25 | -3.39 ± 0.2
97 | CCAAAGCAAUAUUACGCAGA | -2.65 ± 0.18 | -3.75 ± 0.19
